In US20090012261A1, “HLA Epitope Identification” (priority 2007, published 2009):

Target: T1, TAP (Homo sapiens, UniProt Q03518+Q03519)
T1 sequence (Q03518 1-748): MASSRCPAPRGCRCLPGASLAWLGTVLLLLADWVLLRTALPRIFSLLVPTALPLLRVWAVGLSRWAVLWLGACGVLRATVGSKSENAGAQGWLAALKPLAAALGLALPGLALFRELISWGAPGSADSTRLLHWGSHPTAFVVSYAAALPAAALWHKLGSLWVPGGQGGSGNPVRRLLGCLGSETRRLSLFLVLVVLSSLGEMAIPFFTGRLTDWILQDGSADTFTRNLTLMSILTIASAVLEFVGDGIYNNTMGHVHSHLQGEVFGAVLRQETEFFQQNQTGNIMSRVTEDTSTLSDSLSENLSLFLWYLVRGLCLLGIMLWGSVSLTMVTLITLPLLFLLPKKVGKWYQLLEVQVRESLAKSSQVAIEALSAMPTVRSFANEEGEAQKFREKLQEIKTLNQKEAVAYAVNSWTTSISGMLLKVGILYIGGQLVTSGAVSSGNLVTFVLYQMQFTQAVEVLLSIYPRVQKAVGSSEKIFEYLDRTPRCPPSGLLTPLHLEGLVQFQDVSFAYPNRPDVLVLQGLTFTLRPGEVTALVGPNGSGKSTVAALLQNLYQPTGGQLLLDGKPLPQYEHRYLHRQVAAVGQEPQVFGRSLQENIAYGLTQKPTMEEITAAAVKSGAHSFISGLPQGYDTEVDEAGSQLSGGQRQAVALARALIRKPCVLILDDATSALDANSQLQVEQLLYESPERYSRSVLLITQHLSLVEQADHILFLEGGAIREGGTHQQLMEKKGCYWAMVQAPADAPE
T1 sequence (Q03519 1-686): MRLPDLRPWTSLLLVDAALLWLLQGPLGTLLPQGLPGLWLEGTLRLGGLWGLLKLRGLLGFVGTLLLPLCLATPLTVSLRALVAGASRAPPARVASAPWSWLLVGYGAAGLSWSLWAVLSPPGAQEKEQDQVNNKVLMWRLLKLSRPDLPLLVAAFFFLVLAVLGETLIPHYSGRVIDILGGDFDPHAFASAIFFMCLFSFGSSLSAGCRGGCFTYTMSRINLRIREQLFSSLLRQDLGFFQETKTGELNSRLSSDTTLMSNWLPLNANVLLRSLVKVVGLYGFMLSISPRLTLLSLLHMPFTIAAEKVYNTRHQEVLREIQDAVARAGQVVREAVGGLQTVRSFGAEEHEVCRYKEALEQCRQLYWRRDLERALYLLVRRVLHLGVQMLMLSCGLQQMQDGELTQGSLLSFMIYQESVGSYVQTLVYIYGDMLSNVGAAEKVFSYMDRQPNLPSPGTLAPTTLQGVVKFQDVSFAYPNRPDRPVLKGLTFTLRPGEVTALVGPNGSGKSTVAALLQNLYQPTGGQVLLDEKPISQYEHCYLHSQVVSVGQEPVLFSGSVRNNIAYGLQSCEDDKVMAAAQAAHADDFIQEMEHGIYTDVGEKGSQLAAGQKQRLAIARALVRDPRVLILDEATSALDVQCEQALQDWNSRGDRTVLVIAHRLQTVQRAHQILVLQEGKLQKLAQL
Experiment: TAP affinity prediction (consensus scoring, log IC50)
Set-up: unit not given here
Conditions: variant versus RK9
Method: TAP affinity prediction: Predicting the TAP affinity, and therefore the TAP transport efficiency, was performed using the consensus scoring methods described by Peters et al. (49). The TAP affinity score is the sum of the matrix elements of the C-terminus and three N-terminal residues, for any arbitrary length represented by log (IC50) values. […] A low TAP score corresponds to a peptide well suited for TAP binding, and a high TAP score corresponds to low TAP affinity.
A TAP affinity algorithm was used to determine TAP-peptide binding log IC50 scores (49) (Table 5) and predict TAP escape mutations.

Sequence | Increase of TAP log IC50 value versus RK9 (difference)
QLRPGGKKK | 1.81
RLRPGGKKQ | 0.57
